Test results as given in patent US20240117030A1 (Pfizer, published 2024).
Numbering of substitutions follows the chain as printed.

B1: IL33-0698 (antibody, IgG1, V domains shown)
VH: EVQLVESGGGLVQPGGSLRLSCAASGFTFSSYWMYWVRQAPGKGLEWVAAITPNAHAGYYPESVKGRFTISRDNAKNSLYLQMNSLRAEDTAVYYCARGHYYYTSYSLGYWGQGTLVTVSS
VL: DIQMTQSPSSLSASVGDRVTITCRASQPISKHLDWYQQKPGKAPKLLIYFTNNLQTGVPSRFSGSGSGTDFTLTISSLQPEDFATYYCFQYKQGWTFGGGTKVEIK
B2: IL33-0710 (antibody, IgG1, V domains shown)
VH: B1 VH
VL: B1 VL with N52K, Q55V, K92N
B3: IL33-0711 (antibody, IgG1, V domains shown)
VH: B1 VH
VL: B1 VL with N52K, Q55K, K92N
B4: IL33-0701 (antibody, IgG1, V domains shown)
VH: B1 VH with A55K, H56G, A57V, G58D
VL: B1 VL
B5: IL33-0712 (antibody, IgG1, V domains shown)
VH: B1 VH
VL: B1 VL with N52K, T56S, K92N
B6: IL4-1347 (antibody, human IgG1, kappa, V domains shown)
VH: QVTLRESGPALVKPTQTLTLTCTFSGFSLSTSGMGVSWIRQPPGKGLEWLAHIYWDDDKRYNPSLKSRLTISKDTSRNQVVLTMTNMDPVDTATYYCARRETVFYWYFDVWGRGTPVTVSS
VL: DIQMTQSPSSLSASVGDRVTITCKASQSVDEDGDSYMNWYQQKPGKAPKLLIYAASNLESGVPSRFSGSGSGTDFTLTISSLQPEDFATYYCQQSNEDPPTFGGGTKVEIKR
B7: IL4-1358 (antibody, IgG1, V domains shown)
VH: B6 VH with S32W, M34E
VL: DIQMTQSPSSLSASVGDRVTITCKASQSVDEDGDSYMNWYQQKPGKAPKLLIYAASNLESGVPSRFSGSGSGTDFTLTISSLQPEDFATYYCQQSNEDPPTFGGGTKVEIK
B8: IL4-1352 (antibody, IgG1, V domains shown)
VH: B6 VH with T31N, S32W
VL: B7 VL
B9: IL4-1356 (antibody, IgG1, V domains shown)
VH: B6 VH with S30L, S32F, M34S
VL: B7 VL
B10: IL4-1350 (antibody, IgG1, V domains shown)
VH: B6 VH with S32W, M34S
VL: B7 VL
B11: IL4-0002 (antibody, human IgG1, kappa)
heavy: EVTLRESGPALVKPTQTLTLTCTFSGFSLSNFGEGLSWIRQPPGKGLEWLAHIYWDDDKRYNPSLKSRLTISKDTSRNQVVLTMTNMDPVDTATYYCARRETVFYWYFDVWGQGTTVTVSSASTKGPSVFPLAPSSKSTSGGTAALGCLVKDYFPEPVTVSWNSGALTSGVHTFPAVLQSSGLYSLSSVVTVPSSSLGTQTYICNVNHKPSNTKVDKKVEPKSCDKTHTCPPCPAPEAAGAPSVFLFPPKPKDTLMISRTPEVTCVVVDVSHEDPEVKFNWYVDGVEVHNAKTKPREEQYNSTYRVVSVLTVLHQDWLNGKEYKCKVSNKALPAPIEKTISKAKGQPREPQVYTLPPSREEMTKNQVSLTCLVKGFYPSDIAVEWESNGQPENNYKTTPPVLDSDGSFFLYSKLTVDKSRWQQGNVFSCSVMHEALHNHYTQKSLSLSPGK
light: DIQMTQSPSSLSASVGDRVTITCKASQSVDEDGDSYMNWYQQKPGKAPKLLIYAASNLESGVPSRFSGSGSGTDFTLTISSLQPEDFATYYCQQSNEDPPTFGGGTKVEIKRTVAAPSVFIFPPSDEQLKSGTASVVCLLNNFYPREAKVQWKVDNALQSGNSQESVTEQDSKDSTYSLSSTLTLSKADYEKHKVYACEVTHQGLSSPVTKSFNRGEC
B12: IL4-1040 (antibody, human IgG1, kappa, V domains shown)
VH: B6 VH with Q1E, T31N, S32F, M34E, V36L, R113Q, P116T
VL: B6 VL with K24R, D32E, E97K
B13: IL4-0749 (antibody, human IgG1, kappa, V domains shown)
VH: B6 VH with Q1E, T31N, S32F, M34E, V36L, R113Q, P116T
VL: B6 VL with K24R, D32E
B14: IL4-0037 (antibody, IgG1, V domains shown)
VH: B6 VH with Q1E, T31N, S32F, M34E, V36L, N62S, P63T, S67T, R113Q, P116T
VL: B7 VL
B15: IL4-0157 (antibody, IgG1, V domains shown)
VH: B6 VH with Q1E, T31N, S32F, M34E, V36L, N62S, P63T, S67T, R113Q, P116T
VL: B7 VL with K24R, D32E, N96H, E97K
B16: IL13-1338 (antibody, IgG1, V domains shown)
VH: EVQLVESGGGLVQPGGSLRLSCAASGFTFSSYAMSWVRQAPGKGLEWVASISSGDTTYYPDSVKGRFTISRDNAKNSLYLQMNSLRAEDTAVYYCARNEGYYFGLTLWGQGTLVTVSS
VL: B7 VL with Q27E, E31H, D32S, D34S, Y36L, N38H, A54R, P100W
B17: IL13-1308 (antibody, IgG1, V domains shown)
VH: B16 VH with N98L, E99D, L105F, T106P, L107Y
VL: B6 VL with Q27E, E31H, D32F, D34W, Y36L, M37V, N38H, A54R, P100W

Target: T1, recombinant human IL-33 (R&D Systems 3625-IL), reduced with DTT (human, UniProt O95760 112-270, limits assumed)
T1 sequence (looked up): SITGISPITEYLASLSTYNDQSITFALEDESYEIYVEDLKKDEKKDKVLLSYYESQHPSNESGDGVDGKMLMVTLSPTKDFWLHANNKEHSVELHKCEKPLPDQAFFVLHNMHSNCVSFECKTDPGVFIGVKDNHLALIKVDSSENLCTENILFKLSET
Assay: cell-based or functional assay

Question: How did the “IC50 [nM] versus reduced human IL-33 (R&D), IC50 (AVE)” value turn out when B1 was run?
Answer: Its value is 0.014 nM.

Question: With B2 as the binder, how does the “IC50 [nM] versus reduced human IL-33 (R&D), IC50 (AVE)” value read?
Answer: The value was 0.013 nM.

Question: B3 was tested. Which “IC50 [nM] versus reduced human IL-33 (R&D), IC50 (AVE)” value did it give?
Answer: Its value is 0.007 nM.

Question: B4 was tested. Which “IC50 [nM] versus reduced human IL-33 (R&D), IC50 (AVE)” value did it give?
Answer: The value was 0.013 nM.

Question: B5 was tested. Which “IC50 [nM] versus reduced human IL-33 (R&D), IC50 (AVE)” value did it give?
Answer: Its value is 0.01 nM.

Target: T2, human IL-4 (human, UniProt P05112 25-153)
T2 sequence (looked up): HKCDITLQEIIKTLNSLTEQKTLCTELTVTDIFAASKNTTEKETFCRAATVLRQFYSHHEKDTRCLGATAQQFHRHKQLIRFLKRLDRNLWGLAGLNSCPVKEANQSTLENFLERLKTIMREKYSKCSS
Assay: cell-based or functional assay

Question: With B6 as the binder, how does the “CD23: Fold bioactivity relative to IL4-1285” value read?
Answer: The value was 1.5 fold.

Question: And the “CD23 IC50 [pM]” value?
Answer: The value was 65.2 pM.

Question: What does the source list for B7?
Answer: CD23: Fold bioactivity relative to IL4-1285: 5.7 fold; CD23 IC50 [pM]: 16.8 pM

Question: How did the “CD23: Fold bioactivity relative to IL4-1285” value turn out when B8 was run?
Answer: The value was 4.9 fold.

Question: What about the “CD23 IC50 [pM]” value of the same binder?
Answer: The value was 19.6 pM.

Question: B9 was tested. Which “CD23: Fold bioactivity relative to IL4-1285” value did it give?
Answer: The value was 2.1 fold.

Question: And the “CD23 IC50 [pM]” value?
Answer: The value was 44.9 pM.

Question: Which results are given for B10?
Answer: CD23: Fold bioactivity relative to IL4-1285: 5.4 fold; CD23 IC50 [pM]: 17.9 pM

Target: T2, human IL-4
Assay: cell-based or functional assay
Remark: another data set of the same source

Question: B11 was tested. Which “CD23: Fold bioactivity relative to IL4-0002” value did it give?
Answer: The value was 1 fold.

Question: What about the “CD23 IC50 [pM]” value of the same binder?
Answer: The value was 2.1 pM.

Question: Which “CD23: Fold bioactivity relative to IL4-0002” value does the source give for B12 here?
Answer: Its value is 0.7 fold.

Question: What about the “CD23 IC50 [pM]” value of the same binder?
Answer: The value was 3.2 pM.

Question: With B13 as the binder, how does the “CD23: Fold bioactivity relative to IL4-0002” value read?
Answer: The value was 0.9 fold.

Question: What about the “CD23 IC50 [pM]” value of the same binder?
Answer: The value was 2.4 pM.

Question: What does the source list for B14?
Answer: CD23: Fold bioactivity relative to IL4-0002: 1.3 fold; CD23 IC50 [pM]: 1.6 pM

Question: Which results are given for B15?
Answer: CD23: Fold bioactivity relative to IL4-0002: 0.2 fold; CD23 IC50 [pM]: 9.3 pM

Target: human IL-13 (human, UniProt P35225 35-146)
Sequence (P35225 35-146 limits assumed, form in doubt): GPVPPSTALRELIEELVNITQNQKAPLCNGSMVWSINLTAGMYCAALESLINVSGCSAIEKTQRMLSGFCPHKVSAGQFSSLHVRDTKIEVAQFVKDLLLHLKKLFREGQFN
Assay: cell-based or functional assay

Question: Which results are given for B16?
Answer: CD23: Fold bioactivity relative to IL13-0001: 0.9 fold; CD23: Fold bioactivity relative to IL13-1307: 26.5 fold; CD23 IC50 [pM]: 11.5 pM; pSTAT6: Fold bioactivity relative to IL13-0001: 1.1 fold; pSTAT6: Fold bioactivity relative to IL13-1307: 1.6 fold; pSTAT6 IC50 [pM]: 87 pM

Question: With B17 as the binder, how does the “CD23: Fold bioactivity relative to IL13-0001” value read?
Answer: Its value is 0.7 fold.

Question: What about the “CD23: Fold bioactivity relative to IL13-1307” value of the same binder?
Answer: Its value is 21.3 fold.

Question: And the “CD23 IC50 [pM]” value?
Answer: Its value is 14.4 pM.

Question: And the “pSTAT6: Fold bioactivity relative to IL13-0001” value?
Answer: Its value is 2.2 fold.

Question: What about the “pSTAT6: Fold bioactivity relative to IL13-1307” value of the same binder?
Answer: Its value is 3.3 fold.

Question: And the “pSTAT6 IC50 [pM]” value?
Answer: The value was 42.7 pM.
